In IntAct's records for PubMed 17380123:

B1: Zinc finger HIT domain-containing protein 1 (Homo sapiens), O43257 (parent)
chain: MVEKKTSVRSQDPGQRRVLDRAARQRRINRQLEALENDNFQDDPHAGLPQLGKRLPQFDDDADTGKKKKKTRGDHFKLRFRKNFQALLEEQNLSVAEGPNYLTACAGPPSRPQRPFCAVCGFPSPYTCVSCGARYCTVRCLGTHQETRCLKWTV

Variants of: B1
Conditions: with mk14_human MAPK14, Q16539
Sequence of mk14_human MAPK14, Q16539 (Q16539 whole entry): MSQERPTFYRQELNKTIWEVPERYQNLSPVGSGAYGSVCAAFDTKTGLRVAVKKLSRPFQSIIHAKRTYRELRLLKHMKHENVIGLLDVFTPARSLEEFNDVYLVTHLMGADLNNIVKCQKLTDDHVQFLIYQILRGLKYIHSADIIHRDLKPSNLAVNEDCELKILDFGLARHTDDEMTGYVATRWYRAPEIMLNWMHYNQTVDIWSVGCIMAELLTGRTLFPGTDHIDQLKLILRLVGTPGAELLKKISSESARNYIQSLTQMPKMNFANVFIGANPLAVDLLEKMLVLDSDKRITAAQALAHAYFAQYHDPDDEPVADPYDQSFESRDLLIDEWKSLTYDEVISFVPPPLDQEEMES

effect of a mutation on the interaction	Variant
disrupting interaction	T103A
